From patent US10787640B2, “Producing mesodermal cell types and methods of using the same” (The Board of Trustees of the Leland Stanford Junior …, priority 2015, dated 2020)

B1: Activin: TGFβ agonist (protein, UniProt P08476 311-426, looked up)
Inhibin beta A chain: GLECDGKVNICCKKQFFVSFKDIGWNDWIIAPSGYHANYCEGECPSHIAGTSGSSLSFHSTVINHYRMRGHSPFANLKSCCVPTKLRPMSMLYYDDGQNIIKKDIQNMIVEECGCS
modifications: Inhibin beta A chain
notes: TGFβ agonist

Columns and labels:
Format in all cases: cell-based, human
[1] = system: hESC-derived lateral mesoderm; test: Lateral mesoderm patterning, qPCR
Protocol: Subsequently, day 1 anterior primitive streak was briefly washed (DMEM/F12) and differentiated towards day 2 paraxial mesoderm for 24 hours (1 μM A-83-01+3 μM CHIR99021+250 nM LDN-193189+20 ng/mL FGF2). Separately, day 1 mid primitive streak was differentiated towards day 2 lateral mesoderm for 24 hours (1 μM A-83-01+30 ng/mL BMP4+1 μM C59; with 2 μM SB-505124 sometimes used instead of A-83-01).
C) To reveal the possible identity of non-cardiac mesoderm lineages that were contaminating cardiac mesoderm-containing cultures, NKX2.5-GFP hESCs were differentiated towards mid primitive streak (day 1) and were differentiated towards a heterogeneous population containing cardiac mesoderm (day 3) by treatment with SB-505124+BMP4+C59 (without FGF2) on days 2-3 of differentiation. FACS was performed on day 3 to purify either NKX2.5-GFP^+ or NKX2.5-GFP^− cells (top subpanels) which were sorted for qPCR (bottom subpanels). Gene expression was normalized to expression of a gene in the NKX2.5-GFP^+ fraction (dotted line). D) Timecourse of gene expression in hESCs differentiating towards mid primitive streak and lateral mesoderm, with treatment by SB-505124+BMP4+C59 on days 2-3 of differentiation. […] G) To assess whether a stabilized vitamin C analog (ascorbic acid-2-phosphate) (AA2P) enhanced cardiac mesoderm differentiation into cardiomyocytes, day 4 hESC-derived cardiac mesoderm was exposed to BMP4 (30 ng/mL)+XAV939 (1 μM) for 48 hours in the presence or absence of 200 μg/mL AA2P and qPCR was conducted of day 6 populations; qPCR data were normalized such that expression values in the highest-expressing sample was normalized=1.0. […] J) In the mouse embryo, endocardium (progenitors to heart-affiliated endothelium) are marked by transient coexpression of pan-heart marker Nkx2.5 together with endothelial markers (Ferdous et al., 2009; Stanley et al., 2002).

SOX17-mCherry hESCs = test: Hematopoietic mesoderm and SOX17+CD34+ hemogenic precursor specification
Protocol: SOX17^mCherry/+ H9 hESCs (referred to as SOX17-mCherry hESCs throughout this study) were routinely propagated in mTeSR1 (StemCell Technologies)+1% penicillin/streptomycin. They were passaged ˜1:12-1:25 as fine clumps using Accutase (Gibco) onto plates precoated with a Geltrex substratum (Gibco) in mTeSR1 medium supplemented with thiazovivin ([…]; a ROCK inhibitor). After overnight plating, hESCs were washed (DMEM/F12) and differentiated towards posterior PS using BMP4 (15-40 ng/mL, R&D Systems), CHIR99021 ([…]), FGF2 (20 ng/mL, Invitrogen) and PIK90 (100 nM, Calbiochem) for 24 hours, with the optional inclusion of Activin (30 ng/mL, R&D Systems) to induce mid PS. Day 1 mid or posterior PS was subsequently washed (DMEM/F12) and further differentiated using BMP4 (40 ng/mL), GDC-0941 (0.25-2.5 μM, Cellagen Technology), Forskolin (10 μM, Tocris), SB-505124 ([…]), VEGF (100 ng/mL, R&D Systems), XAV939 (1 μM, Tocris) and ascorbic acid-2-phosphate (200 μg/mL, Sigma) for 24 hours. Day 2 cultures were further directed into the definitive hematopoietic lineage/hemogenic precursors by Activin A (15 ng/mL), GDC-0941 (0.25-2.5 μM), VEGF (100 ng/mL), XAV939 (1 μM) and ascorbic acid-2-phosphate (200 μg/mL) for 24 hours. Day 3 definitive hematopoietic progenitors were subsequently differentiated into early Runx1^lowGfi1^low hemogenic intermediates through day 4-5 treatment with BMP4 (50 ng/mL), TTNPB (500 nM), VEGF (100 ng/mL) and XAV939 (1 μM) for 48 hours, supplemented with SB-505124 (2 μM) on day 5. Day 5 populations were then dissociated into single cells, counted and reaggregated in individual wells of a low-adhesion V-bottom or U-bottom 96-well plate (e.g., Thermo Fisher, catalog no. 249952) with ˜15,000-20,000 cells seeded per well. Aggregates were cultured for 48 additional hours until day 7 in BMP4 (50 ng/mL), TTNPB (500 nM), VEGF (100 ng/mL), XAV939 (1 μM), SB-505124 (2 μM), SCF (25-50 ng/mL, R&D Systems), IL6 (10 ng/mL, R&D Systems) and IL6RA (250-1000 ng/mL, R&D Systems). All differentiation was conducted in serum-free CDM2 fully-defined basal media.

lateral mesoderm = test: Forelimb versus hindlimb progenitor specification from lateral mesoderm; conditions: day 2-3, in the context of BMP and WNT activation
Protocol: Undifferentiated hPSCs (wild-type H7 as well as TBX5-Venus V19-2 H9 hESCs) were maintained in mTeSR1 media on Geltrex-coated plates. As described, they were differentiated into mid primitive streak for 24 hours (D0-1; 30 ng/mL Activin+40 ng/mL BMP4+6 μM CHIR99021+20 ng/mL FGF2+100 nM PIK90) and subsequently differentiated into lateral mesoderm (D1-2; 1 μM A-83-01+30 ng/mL BMP4+1 μM C59), with the inclusion of 50 nM of TTNPB or 2 μM ATRA on D1-2 for trunk lateral mesoderm that was subsequently competent for forelimb differentiation.
Day 2 trunk lateral mesoderm was differentiated into day 3 forelimb progenitors (D2-3; 1 μM A-83-01+1 μM DMH1+3 μM CHIR99021). By contrast, day 2 non-trunk lateral mesoderm was differentiated into day 3 hindlimb progenitors (D2-3; 25 ng/mL Activin+1 μM DMH1+3 μM CHIR99021).

Row | Molecule | lateral mesoderm fate (qPCR) ([1]; day 2 lateral mesoderm, SB-505124+BMP4 with CHIR99021 or C59, 24 hours) | pan-lateral mesoderm marker FOXF1 expression ([1]; last 12 hrs C59 or 3 μM CHIR in addition to BS) | downstream ability to acquire hematopoietic fate (SOX17-mCherry hESCs; Activin 30 ng/mL during PS induction) | SOX17+ cells formed by day 3 (SOX17-mCherry hESCs; treatment on day 2-3, 24 hours) | hindlimb transcription factors TBX4 and PITX1 expression (lateral mesoderm)
1 | Cc1cnc(-c2cnc(NCCNc3ccc(C#N)cn3)nc2-c2ccc(Cl)cc2Cl)[nH]1 [CHIR99021, 6-[[2-[[4-(2,4-Dichlorophenyl)-5-(5-methyl-1H-imidazol-2-yl)-2-pyrimidinyl]amino]ethyl]amino]-3-pyridinecarbonitrile] | specified a posterior lateral mesoderm/forelimb bud fate (PRRX1) | not markedly changed | – | – | –
2 | B1 | – | – | significantly enhanced the downstream ability of cells to acquire hematopoietic fate | doubled the generation of SOX17^+ cells | strongly induced the hindlimb transcription factors TBX4 and PITX1
